Test system: peptide library, one residue held at a place counted from the S/T acceptor
Assay: relative phosphorylation of the sub-library (ratio to the mean residue at this position); human; higher = residue favoured
Procedure, shortened: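 Purified recombinant kinases (human or orthologue constructs) were incubated in 384-well plates with biotinylated degenerate peptide sub-libraries, each fixing one residue at one position around a central Ser/Thr. Peptides were at 50 μM, with 50 μM ATP spiked with γ-32P-ATP, for 90 min under kinase-specific conditions. Spots on streptavidin membranes were phosphorimaged and quantified by densitometry. Relative sub-library phosphorylation is a ratio to the mean residue at that position.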

Chain of MOK, construct: aa1-343 (Q9UQ07 1-343, looked up): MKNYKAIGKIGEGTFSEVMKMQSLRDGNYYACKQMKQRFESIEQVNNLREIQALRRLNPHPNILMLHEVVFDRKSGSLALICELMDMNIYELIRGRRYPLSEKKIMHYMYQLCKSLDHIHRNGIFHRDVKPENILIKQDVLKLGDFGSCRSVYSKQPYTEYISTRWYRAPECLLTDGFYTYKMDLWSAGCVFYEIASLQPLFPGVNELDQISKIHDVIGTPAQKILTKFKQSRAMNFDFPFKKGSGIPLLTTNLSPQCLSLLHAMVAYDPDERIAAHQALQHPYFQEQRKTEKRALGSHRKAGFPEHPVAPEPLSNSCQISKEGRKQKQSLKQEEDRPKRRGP
Chain of RIPK1, construct: aa1-327 (Q13546 1-327, looked up): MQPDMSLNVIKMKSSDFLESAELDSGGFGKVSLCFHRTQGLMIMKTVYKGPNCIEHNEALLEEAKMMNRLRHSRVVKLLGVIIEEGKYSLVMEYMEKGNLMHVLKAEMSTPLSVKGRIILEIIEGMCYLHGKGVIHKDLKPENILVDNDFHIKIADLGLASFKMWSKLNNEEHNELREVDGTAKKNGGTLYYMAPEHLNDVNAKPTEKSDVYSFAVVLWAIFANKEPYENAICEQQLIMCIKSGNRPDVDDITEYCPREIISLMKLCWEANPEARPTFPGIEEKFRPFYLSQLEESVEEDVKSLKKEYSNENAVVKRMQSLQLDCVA
Chain of PAK2, construct: aa3-end (Q13177 3-524, looked up): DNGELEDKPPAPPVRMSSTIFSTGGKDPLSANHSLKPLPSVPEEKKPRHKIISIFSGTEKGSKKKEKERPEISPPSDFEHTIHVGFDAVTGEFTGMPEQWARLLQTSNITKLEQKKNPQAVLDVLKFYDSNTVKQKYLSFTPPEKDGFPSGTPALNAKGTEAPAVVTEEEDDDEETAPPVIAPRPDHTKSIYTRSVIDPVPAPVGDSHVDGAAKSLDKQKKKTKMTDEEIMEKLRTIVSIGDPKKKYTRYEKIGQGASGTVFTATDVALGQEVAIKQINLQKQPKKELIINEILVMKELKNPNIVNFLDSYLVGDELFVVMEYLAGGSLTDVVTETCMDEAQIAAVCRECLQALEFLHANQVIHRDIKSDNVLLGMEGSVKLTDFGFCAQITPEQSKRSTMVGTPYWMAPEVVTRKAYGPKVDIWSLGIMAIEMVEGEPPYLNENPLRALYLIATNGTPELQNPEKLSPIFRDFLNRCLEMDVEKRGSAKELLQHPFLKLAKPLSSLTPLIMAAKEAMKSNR
Chain of ACVR1B, construct: aa150-end (P36896 150-505, looked up): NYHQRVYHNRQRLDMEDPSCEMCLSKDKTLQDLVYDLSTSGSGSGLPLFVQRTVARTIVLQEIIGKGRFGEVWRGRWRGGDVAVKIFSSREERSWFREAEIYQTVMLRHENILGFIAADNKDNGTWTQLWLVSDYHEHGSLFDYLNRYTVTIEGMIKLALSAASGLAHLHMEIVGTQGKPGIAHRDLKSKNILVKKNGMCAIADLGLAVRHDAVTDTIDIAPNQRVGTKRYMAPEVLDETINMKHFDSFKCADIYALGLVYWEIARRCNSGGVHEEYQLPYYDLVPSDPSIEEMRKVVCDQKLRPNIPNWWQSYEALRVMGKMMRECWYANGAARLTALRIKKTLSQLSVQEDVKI

MOK, construct: aa1-343 (from UniProt Q9UQ07)
relative phosphorylation
Details	at +1	at +2	at +3	at +4	at -1	at -2	at -3	at -4	at -5
A fixed	2.2	1.04	1.2	0.799	1.12	1.03	0.724	0.79	0.816
D fixed	0.137	0.59	0.511	0.519	0.269	0.168	0.231	0.441	0.526
E fixed	0.15	0.672	0.507	0.506	0.332	0.208	0.246	0.506	0.552
F fixed	0.2	0.836	1.02	0.891	0.786	0.328	0.314	0.739	1.02
G fixed	1.23	1.51	1.52	1.34	1.36	0.824	0.645	0.89	1.04
H fixed	0.389	1.44	1.28	1.09	1.19	0.418	0.564	0.862	1.09
I fixed	0.215	0.624	0.704	0.855	0.511	0.863	0.54	0.73	0.865
K fixed	0.574	1.15	1.15	1.44	1.61	0.8	1.27	1.43	1.36
L fixed	0.204	0.822	0.848	0.904	0.712	1.2	0.587	0.739	0.761
M fixed	0.253	0.935	0.967	1.05	1.22	0.675	0.501	0.946	0.903
N fixed	0.32	0.999	0.93	1.06	0.672	0.498	0.452	0.628	0.784
P fixed	6.41	1.12	1.13	1.11	1.33	5.97	1.26	0.96	1.11
Q fixed	0.567	1.21	0.857	0.964	1	0.629	0.563	0.818	0.916
R fixed	3.21	1.58	1.53	1.74	2.2	1.81	7.98	4.34	2.3
V fixed	0.515	0.551	0.668	0.801	0.631	0.918	0.441	0.622	0.622
W fixed	0.215	0.884	0.985	1.02	0.976	0.331	0.316	0.811	1.02
Y fixed	0.21	1.04	1.19	0.921	1.08	0.323	0.377	0.745	1.31
pThr fixed	0.333	0.394	0.486	0.512	0.236	0.431	0.358	0.532	0.775
pTyr fixed	0.334	0.447	0.651	0.45	0.354	0.268	0.329	0.473	0.804

RIPK1, construct: aa1-327 (from UniProt Q13546)
relative phosphorylation
Details	at +1	at +2	at +3	at +4	at -1	at -2	at -3	at -4	at -5
A fixed	0.709	0.619	0.572	0.819	0.574	1.01	0.92	1.03	0.84
D fixed	0.248	0.612	0.489	0.846	0.592	0.374	0.536	0.614	0.642
E fixed	0.331	0.927	0.398	0.81	0.313	0.37	0.551	0.685	0.68
F fixed	1.91	1.28	2	0.939	0.793	0.734	0.896	1.04	1.09
G fixed	0.79	0.817	0.707	1.28	0.747	1.21	1.29	1.27	1.18
H fixed	0.809	1.29	1.04	1.07	1.52	1.18	0.977	0.908	1.12
I fixed	1.1	1.28	1.19	1.27	1.12	1.07	0.944	1.04	1.28
K fixed	1.33	0.639	0.517	0.762	1.83	1.3	1.27	1.06	1.1
L fixed	0.829	1.21	1.09	0.947	1.01	1.19	0.986	0.935	1.14
M fixed	1.38	1.34	1.34	1.11	1.18	1.04	1.08	1.13	1.2
N fixed	0.583	0.801	0.726	0.839	1.3	0.975	0.829	0.76	0.797
P fixed	0.198	0.568	0.355	1.14	0.453	1.11	0.927	1.02	0.833
Q fixed	1.19	0.891	0.703	0.787	0.85	0.796	0.743	0.689	0.667
R fixed	2.48	1.02	1.13	0.945	1.97	1.94	2.35	1.4	1.32
V fixed	0.96	1.03	0.917	1.04	1.03	1.26	0.845	1.22	1.16
W fixed	1.01	1.03	1.88	1.22	0.675	0.763	1.02	1.29	0.987
Y fixed	1.15	1.66	1.94	1.18	1.04	0.682	0.84	0.912	0.972
pThr fixed	0.704	0.999	0.696	1.06	0.761	1.34	1.15	1.08	0.87
pTyr fixed	0.391	0.788	0.54	0.968	0.683	0.719	1.19	0.795	0.72

PAK2, construct: aa3-end (from UniProt Q13177)
relative phosphorylation
Details	at +1	at +2	at +3	at +4	at -1	at -2	at -3	at -4	at -5
A fixed	0.794	0.823	0.781	0.846	0.808	0.606	0.786	0.97	1.05
D fixed	0.359	0.391	0.855	0.98	0.562	0.197	0.506	0.844	0.724
E fixed	0.432	0.37	0.921	0.988	0.522	0.222	0.469	0.891	0.602
F fixed	1.18	1.76	1.77	0.95	0.956	0.464	0.699	0.729	0.803
G fixed	0.916	0.643	0.868	1.01	0.668	0.479	0.891	1.06	1.2
H fixed	0.997	1.4	1.14	1.07	1.29	1.44	1.2	1.09	1.16
I fixed	1.22	1.22	1.03	0.87	0.796	0.606	0.583	0.673	0.741
K fixed	1.01	0.452	0.623	0.938	1.41	1.12	1.78	1.58	1.81
L fixed	1.16	1.37	1.13	1.02	1.18	0.391	0.561	0.729	0.707
M fixed	1.64	1.14	1.07	1.07	1.17	0.416	0.599	0.885	0.672
N fixed	0.738	0.734	0.847	1.22	1.07	0.503	0.977	1.02	1.04
P fixed	0.222	0.625	0.903	1.38	0.723	0.935	0.894	0.944	0.926
Q fixed	1.06	0.797	0.754	1.08	1.08	0.572	0.827	0.901	0.889
R fixed	1.19	0.658	0.657	0.821	1.72	7.1	3.91	2.26	2.31
V fixed	1.2	1.01	0.906	0.787	0.763	0.642	0.557	0.688	0.694
W fixed	1.65	1.18	1.33	1.15	1.03	0.485	0.954	0.887	0.801
Y fixed	1.23	2.42	1.42	0.824	1.25	0.821	0.801	0.84	0.858
pThr fixed	0.66	0.551	0.597	1.12	0.392	0.495	0.74	1.04	0.931
pTyr fixed	0.822	2.1	1.11	0.856	0.652	0.379	0.8	0.71	0.876

ACVR1B, construct: aa150-end (from UniProt P36896)
relative phosphorylation
Details	at +1	at +2	at +3	at +4	at -1	at -2	at -3	at -4	at -5
A fixed	0.754	1.35	0.905	1.06	0.833	0.721	0.953	0.891	1.03
D fixed	1.17	1.11	1.11	1.24	1.05	1.58	1.35	1.55	1.12
E fixed	1.75	0.847	1.54	1.19	1.32	6.31	1.52	1.26	0.838
F fixed	1.09	1.01	1.19	0.997	0.896	0.497	1.03	1.02	1.13
G fixed	0.796	0.995	1.22	0.798	0.65	0.801	1.12	1.03	0.975
H fixed	0.749	0.809	0.948	0.968	1.16	0.606	1.02	0.997	1.24
I fixed	1.21	1.13	1.06	0.855	1	0.622	0.855	0.874	0.837
K fixed	0.542	0.649	0.605	0.896	0.747	0.483	0.798	0.987	1.11
L fixed	1.05	1.22	1.01	0.818	1.33	0.597	0.85	0.936	0.931
M fixed	1.33	0.865	1.04	0.967	1.45	0.497	0.998	1.06	0.968
N fixed	0.774	0.902	0.741	0.975	0.963	0.716	0.96	0.954	1.01
P fixed	0.691	1.17	1.14	1.42	0.762	0.549	0.947	0.94	0.939
Q fixed	0.944	0.952	0.909	1.01	1.03	0.72	0.956	0.768	0.809
R fixed	0.604	0.764	0.662	0.799	0.88	0.624	0.884	0.889	1.11
V fixed	1.19	1.18	1.09	0.929	1.12	0.603	0.867	0.843	0.816
W fixed	1.14	0.919	0.903	1.07	0.822	0.592	0.892	1.01	1.19
Y fixed	1.23	1.13	0.95	1.01	0.991	0.49	0.995	0.998	0.953
pThr fixed	2.93	1.06	0.942	1.36	0.888	1.36	1.34	0.896	1.1
pTyr fixed	3.57	1.77	1.28	1.51	1.27	0.679	1.02	1.26	1.03
